Assay results published in a protein production outcome set (Wang et al. 2014).

Assay: label from the status in PepcDB records
In the case of “MVLSVVVVGKPRCRSIAVAARERLHRYGEYPMSSNNASGKVVSVDEQAFENAGEQAADEDGFPVVDETPEFEAAVEQETQAKVDANHPDGIADTSEDRIHGVTLEQEERIRAREAELERISAQAELGTQDGREQRTRDIAAKRSAVRRAEFQTRAASVDPMADPERDDPRAELTQEQLAAVNKQSMRLAEKLDGWSRAAIGRRLGEAVVGGKDVTSAVVGVFEELQTAPGTVIPIGKLEDVNRKEVSIEGTVTRLWKPSSAAISQVGLIEDESGKTKFTSWVASEQPWIEEGEHVRIHGAAKNWYNGRVSVALTGWSTVHFPERGRWWEALEHHHHHH”, the protein production is reported as “failed”. With “MVLVTSVRDYINRMLQDISGMKVLILDSETVSNVSIVYSQSELLQKEVFLVEMIDSISVSKESMSHLKAVYFIRPTSDNIQKLRYQLANPRFGEYHLFFSNLLKDTQIHILADSDEQEVVQQVQEYYADFVSGDPYHFTLNMASNHLYMIPAVVDPSGLQRFSDRVVDGIAAVFLALKRRPVIRYQRTSDTAKRIAHETAKLMYQHESALFDFRRTESSPLLLVIDRRDDPVTPLLNQWTYQAMVHELIGLQDNKVDLKSIGSLPKDQQVEVVLSSEQDAFFKSNMYENFGDIGMNIKRMVDDFQQVAKSNQNIQTVEDMARFVDNYPEYKKMQGNVSKHVTLVTEMSKLVEARKLMTVSQTEQDLACNGGQGAAYEAVTDLLNNESVSDIDRLRLVMLYALRYEKENPVQLMQLFNKLASRSPKYKPGLVQFLLKQAGVEKRTGDLFGNRDLLNIARNMARGLKGVENVYTQHQPLLFQTMESITRGRLRDVDYPFVGDHFQQGRPQEVVIFMVGGTTYEESRSVALQNATNSGVRFILGGTAVLNSKRFLKDLEEAQRISRSGSHMV” the protein production was “failed”. For “MVLYIILAIIVIILIAVGVLFYLRSNKRQIIEKAIERKNEIETLPFDQNLAQLSKLNLKGETKTKYDAMKKDNVESTNKYLAPVEEKIHNAEALLDKFSFNASQSEIDDANELMDSYEQSYQQQLEDVNEIIALYKDNDELYDKCKVDYREMKRDVLANRHQFGEAASLLETEIEKFEPRLEQYEVLKADGNYVQAHNHIAALNEQMKQLRSYMEEIPELIRETQKELPGQFQDLKYGCRDLKVEGYDLDHVKVDSTLQSLKTELSFVEPLISRLELEEANDKLANINDKLDDMYDLIEHEVKAKNDVEETKDIITDNLFKAKDMNYTLQTEIEYVRENYYINESDAQSVRQFENEIQSLISVYDDILKEMSKSAVRYSEVQDNLQYLEDHVTVINDKQEKLQNHLIQLREDEAEAEDNLLRVQSKKEEVYRRLLASNLTSVPERFIIMKNEIDHEVRDVNEQFSERPIHVKQLKDKVSKIVIQMNTFEDEANDVLVNAVYAEKLIQYGNRYRKDYSNVDKSLNEAERLFKNNRYKRAIEIAEQVLESVEPGVTKHIEEEVIKQ”, the protein production was “failed”. For “MVMIWYKALFSFNGRLNRQGFWIGFGINFIFLFIIANFGPKETAFSLTMVLPLLLASYSCVAVIIKRLHDRNRSARAILMMFIPLICYGVSLATQGTMAWLLGVMMPMFIGTMLLLEWGVFKSYPQANQYGEKGETFCFT”, the protein production was “failed”. For “MVNFDEEVFRAYYEHKIKSFIKEELSNNLIKGNIFEFDIEKFLMHFPDACEVNDLIIERPKEIEEIILDIFKEAYVELFGEDKELEKIQIAFKNPKGCEKLIEEISAEDINKLVKFEGNILQAGKVNALLKKAVYYCNKRIKDENGGFLCKYTYTPCDGRVEIEIDDYFSEGEFIKDMLSPREVKKILENKKVWDKLVEKGKIPRCVDLKENDEVFKENLKEIKFILDEYDSIYVNIQEMEIQQPIDLMKNPEEPARSIRVFLENTPGIYAGRVNVIGRVMKREYRHNIPIYKIYIKSNYIKISESYNKIEVKDILRNEELIETLNELGRKKNIIDILSNYLISQIKGYELVKKAIFLQQIKGAFKFLPDGTPLRRDSHILLITDPGIGKSTMLRRIARLFPQNAYASVTTATGGGLTAIVTREATEIGDGWVVKPGVFVRANEGTACIDELTVDKNVMKYILEAMESQTIHVNKGGINVKLPARCAVLAACNPKRGRFDRNLTVIEQIDIPAPLLSRFDLIFPLMDKPNRKSDEEIAEHILNTHIETATKDYKILGAIDIDGITVDEKLLKYYIIYARSCAYIEENQDLYLGEFDETKLIMPYLTDKAKKMIKKYYLEMRKLGEGDNPIPITARQLEAIIRIAEMHAKARLSDKVEDVDAEVAISIIDDCLKQVAYDPETGTLDLDKIAGTPKSRRDKMDAVLNIIREIVSLRDDGLAPEEEIYEKAMAIGLSEKDVNDALEYLKKAGDIYNPRYGFWGLL”, the protein production was “failed”. For “MVNILSLFTLAALWGGSFLFVRIAANPLGPAVLIEVRVAFAALTLLVVSFFLKKSLRFMSNIKHFLILGLFNSALPFLLFAYSAQVLNVSTLAVLNSTAPIWGAVIGAIWTRTRLSKDVIFGLILGMIGVSVLVGWEAINIGDEAIIPIITALIGAFSYGVATNYAKNAPSVEPFNNAHGSMWASVLLVLPLVPFMPVREEVTSDIIAAVFALGAVCTGLAYLLYFRLIKELGASSALTVTFIIPVFGILWGYLFLGETVGVNAIIGTILVVIGTMFVTGFASKFMSKKCV”, the protein production was “failed”. With “MVNLDAEIYEHLNKQIKINELRYLSSGDDSDTFLCNEQYVVKVPKRDSVRISQKREFELYRFLENCKLSYQIPAVVYQSDRFNIMKYIKGERITYEQYHKLSEKEKDALAYDEATFLKELHSIEIDCSVSLFSDALVNKKDKFLQDKKLLISILEKEQLLTDEMLEHIETIYENILNNAVLFKYTPCLVHNDFSANNMIFRNNRLFGVIDFGDFNVGDPDNDFLCLLDCSTDDFGKEFGRKVLKYYQHKAPEVAERKAELNDVYWSIDQIIYGYERKDREMLIKGVSELLQTQAEMFIF” the protein production was “not failed”. With “MVNPAQARQLDKIRKVNYASNTFELIAKEWLQMKDWAEITKTRRLDMLERVVFPAIGKLPVREITPHHILKILQETAKRGAPTVAAEARRTISSVFELAVATLRADSDPVWPVRKALPALEHHHHHH” the protein production was “failed”. In the case of “MVPEFIILGAAILLSICDLFFKLNHRYVALGAIAAIVLAIVSLITLYSEPAGDILNGSFVLDGFSKGFKTLLLGASALILCTAMSDDKKNPIEDKGEYYYLFLMALLGAMFMASSVDFITLFVGLELLSLSSYILVGIRKKSRASNEAAMKYVISGGIGTAITLFGMSYLYGITGSTNIVDMQKVLTGELASGIQLLLALAFLLLLVGLSFKIATVPFHMWAPDVYEGAATPVTAFLGTISKIAGFLLIIRLFLMIFASVLIQGDMQSLYGHMSIYIAVLASITMIVGNVVALKQYNIKRLFAYSGIAHAGYLLVPLVALSPFTMDSMWFYMLAYMLMNIGAFAIIHGLILQNNEENITIFTGLYKRSPFTAIMMTIFILSLAGIPGTAGFIGKINIFLGALHVEPAHYVLASIMMGTTVVSFVYYFRILQQMFFRTGETEERIRLPLNIKVVMSLCAISIVILGIMPMIGYNFFYEYFPLMKDFFFLGNVVQ”, the protein production is reported as “not failed”. In the case of “MVPEITIDVNVFPSPRKSSSNTVEINLKRESDDKCDDAPLFQITQLILKDVVNFDPHKTSPLLETIFPDSISGTRLCVEMALASERVPAPFDMYLHVTVRFVEESTSSSPLENKTCAICLEDMSQDVHDYQEMPNCPHVFHNDCIYKWLGHSNLCPLCRTVLEDEDDDDYPYYS”, the protein production is reported as “failed”. For “MVPSGVRTGRWVAAARAAQRRPRVDSLGQPPSPESASTRAALYVHWPYCEKRCSYCNFNKYIPRGVEEGTVRNCLVTEARTLLRLSGVQRVESVFFGGGTPSLASPHTVAAVLEAVAQEVYLPADSEVTLEANPTSAPGPRLAAFGAAGVNRLSIGLQSLDDAELQLLGRTHSASDALRTLAEARLLFPGRVSVDLMLGLPAQKVEPWLQQLQKLLYHCDDHLSLYQLTLERGTSLFAQVQQGTLPAPDPDLAAEMYQEGRTVLRDAGFRQYEVSNFARNGALSTHNWTYWQCGQYLGIGPGAHGRFVPQGTGGHTREARIQTLEPDNWMKEVTLFGHGTRKCVRLGKLELLEEVLAMGLRTDVGVTHQHWQQFEPQLTLWDVFGASKEVEELLAQGLLLLDYRGLRCSWEGLAVLDSLLLTLLPQLQEAWQHRPSSPVSGG”, the protein production was “failed”. For “MVPTPKPVVDRMLELADVDETDVLYDLGSGDGRIVIRAARTHGARGVGIEIDPDLVKKARKNAKEAGVADLVEFRQGDLFEADISEATVVTLYLLPSVNQKLRPILFEQLSPGTPVVSHDFDMGRWAPDRTVDLEGDTVYRWTIPLEHHHHHH”, the protein production was “failed”. With “MVQQSEVRQMKHSVSTLNQEMTQLNQETVKITQQNRLNAKSSSGVYLLPGAKTPARLESQIGTLRMSLVNITPDADGTTLTLRIQGESNDPLPAFSGTVEYGQIQGTIDNFQEINVQNQLINAPASVLAPSDVDIPLQLKGISVDQLGFVRIHDIQPVMQLEHHHHHH” the protein production was “not failed”.
